Test results taken from the Immune Epitope Database (IEDB).

How the values were obtained:
[1] = target: HLA-A*01:01; test: IEDB peptide-MHC binding, purified MHC/direct/fluorescence; filed as Kd, often an IC50 or EC50 that approximates it; ≥ and ≤ were set here for values at or beyond the usual limits of such assays; details: source organism: Mycobacterium tuberculosis
[2] = target: HLA-A*02:01; test: as above; details: source organism: Mycobacterium tuberculosis
[3] = target: HLA-A*03:01; test: as above; details: source organism: Mycobacterium tuberculosis
[4] = target: HLA-A*11:01; test: as above; details: source organism: Mycobacterium tuberculosis
[5] = target: HLA-A*26:01; test: as above
[6] = target: HLA-A*30:01; test: as above; details: source organism: Mycobacterium tuberculosis str. Haarlem
[7] = target: HLA-A*31:01; test: as above; details: source organism: Mycobacterium tuberculosis
[8] = target: HLA-A*69:01; test: as above; details: source organism: Mycobacterium tuberculosis
[9] = target: HLA-B*08:01; test: as above
[10] = target: HLA-B*08:02; test: as above
[11] = target: HLA-B*18:01; test: as above; details: source organism: Mycobacterium tuberculosis
[12] = target: HLA-B*27:05; test: as above; details: source organism: Mycobacterium tuberculosis
[13] = target: HLA-B*38:01; test: as above
[14] = target: HLA-B*40:01; test: as above; details: source organism: Mycobacterium tuberculosis
[15] = target: HLA-B*46:01; test: as above; details: source organism: Mycobacterium tuberculosis
[16] = target: HLA-B*48:01; test: as above; details: source organism: Mycobacterium tuberculosis
[17] = target: HLA-B*51:01; test: as above; details: source organism: Mycobacterium tuberculosis
[18] = target: HLA-B*57:01; test: as above; details: source organism: Mycobacterium tuberculosis
[19] = target: HLA-B*58:01; test: as above; details: source organism: Mycobacterium tuberculosis
[20] = target: HLA-B*15:01; test: IEDB peptide-MHC binding, purified MHC/competitive/fluorescence; filed as Kd, often an IC50 or EC50 that approximates it; ≥ and ≤ were set here for values at or beyond the usual limits of such assays
[21] = target: HLA-B*15:09; test: as above; details: source organism: Mycobacterium tuberculosis C
[22] = target: HLA-B*39:01; test: as above; details: source organism: Mycobacterium tuberculosis C
[23] = target: HLA-B*15:01; test: IEDB peptide-MHC binding, purified MHC/direct/fluorescence; filed as Kd, often an IC50 or EC50 that approximates it; ≥ and ≤ were set here for values at or beyond the usual limits of such assays; details: source organism: Mycobacterium tuberculosis
[24] = target: HLA-B*15:17; test: as above; details: source organism: Mycobacterium tuberculosis
[25] = target: HLA-B*15:42; test: IEDB peptide-MHC binding, purified MHC/competitive/fluorescence; filed as Kd, often an IC50 or EC50 that approximates it; ≥ and ≤ were set here for values at or beyond the usual limits of such assays; details: source organism: Mycobacterium tuberculosis variant bovis BCG str. Pasteur 1173P2
[26] = target: HLA-B*45:06; test: as above; details: source organism: Mycobacterium tuberculosis variant bovis BCG str. Pasteur 1173P2
[27] = target: HLA-B*83:01; test: as above; details: source organism: Mycobacterium tuberculosis variant bovis BCG str. Pasteur 1173P2
[28] = source organism: Mycobacterium tuberculosis str. Haarlem
[29] = source organism: Mycobacterium tuberculosis F11

| Sequence | Kd [1] | Kd [2] | Kd [3] | Kd [4] | Kd [7] | Kd [8] | Kd [9, 28] | Kd [10, 28] | Kd [11] | Kd [12] | Kd [13, 28] | Kd [14] | Kd [15] | Kd [16] | Kd [17] | Kd [18] | Kd [19] | Kd [24] | also measured |
| --- | --- | --- | --- | --- | --- | --- | --- | --- | --- | --- | --- | --- | --- | --- | --- | --- | --- | --- | --- |
| RPKPDYSAM | ≥ 20 µM | ≥ 20 µM | ≥ 20 µM | ≥ 20 µM | ≥ 20 µM | ≥ 20 µM | 0.08 µM | ≥ 20 µM | ≥ 20 µM | ≥ 20 µM | ≥ 20 µM | ≥ 20 µM | ≥ 20 µM | ≥ 20 µM | ≥ 20 µM | ≥ 20 µM | ≥ 20 µM | – | Kd [5, 28]: ≥ 20 µM; Kd [6]: 0.123 µM; Kd ([20]; source organism: Mycobacterium tuberculosis C): ≥ 20 µM; Kd [21]: ≥ 20 µM; Kd [22]: 1.96 µM |
| KPKLARGEL | ≥ 20 µM | ≥ 20 µM | ≥ 20 µM | ≥ 20 µM | ≥ 20 µM | ≥ 20 µM | – | – | 2.57 µM | ≥ 20 µM | – | 1.16 µM | ≥ 20 µM | ≥ 20 µM | ≥ 20 µM | ≥ 20 µM | ≥ 20 µM | ≥ 20 µM | Kd [5, 29]: ≥ 20 µM; Kd [9, 29]: 0.19 µM; Kd [10, 29]: ≥ 5 µM; Kd [23]: ≥ 20 µM; Kd [13, 29]: ≥ 20 µM |
| RPRVAQLTF | 4.16 µM | ≥ 20 µM | ≥ 20 µM | ≥ 20 µM | ≥ 20 µM | ≥ 20 µM | 0.267 µM | 3.86 µM | 0.104 µM | ≥ 20 µM | ≥ 20 µM | ≥ 20 µM | ≥ 20 µM | ≥ 20 µM | ≥ 20 µM | 0.864 µM | ≥ 20 µM | 0.169 µM | Kd ([20]; source organism: Mycobacterium tuberculosis variant bovis BCG str. Pasteur 1173P2): ≥ 20 µM; Kd [25]: ≥ 5 µM; Kd [26]: ≥ 5 µM; Kd [27]: 2.01 µM |
